Laboratory results taken from PMC3991615, “The N-Terminal Domain of the Repressor of Staphylococcus aureus Phage Φ11 Possesses an Unusual Dimerization Ability and DNA Binding Affinity”.

Legend:
[1] = target: T1, rCI (phage phi11 CI lysogenic repressor) (Staphylococcus aureus phage phi11) (UniProt Q8SDX2); assay: EMSA; settings: EMSA with ~0.1 nM 32P-DNA, 20 min on ice (0°C) unless 42°C; RNAP assay and protein storage in buffer C (10 mM Tris-HCl pH 8.0, 200 mM NaCl, 1 mM EDTA, 5% …)
T1 sequence: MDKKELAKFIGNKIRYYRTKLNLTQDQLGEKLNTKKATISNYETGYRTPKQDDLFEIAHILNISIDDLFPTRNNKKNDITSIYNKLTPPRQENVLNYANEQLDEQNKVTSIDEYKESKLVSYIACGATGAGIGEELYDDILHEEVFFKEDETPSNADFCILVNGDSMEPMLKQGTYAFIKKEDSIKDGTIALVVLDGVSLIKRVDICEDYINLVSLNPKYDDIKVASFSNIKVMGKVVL

[2] = target: T2, rNTD (N-terminal domain of phage phi11 CI repressor) (Staphylococcus aureus phage phi11) (UniProt Q8SDX2); assay: EMSA; settings: EMSA with ~0.1 nM 32P-DNA, 20 min on ice (0°C) unless 42°C; RNAP assay and protein storage in buffer C (10 mM Tris-HCl pH 8.0, 200 mM NaCl, 1 mM EDTA, 5% …)
T2 sequence: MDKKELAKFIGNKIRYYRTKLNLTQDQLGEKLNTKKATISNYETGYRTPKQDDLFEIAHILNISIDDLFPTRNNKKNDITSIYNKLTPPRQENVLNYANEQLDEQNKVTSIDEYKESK

[3] = target: T2, rNTD (N-terminal domain of phage phi11 CI repressor) (Staphylococcus aureus phage phi11); assay: DMS footprinting; settings: EMSA with ~0.1 nM 32P-DNA, 20 min on ice (0°C) unless 42°C; RNAP assay and protein storage in buffer C (10 mM Tris-HCl pH 8.0, 200 mM NaCl, 1 mM EDTA, 5% …)
[4] = target: recombinant N-terminal domain (NTD) of the Φ11 lysogenic repressor CI (Staphylococcus aureus phage Φ11); assay: cross-linking; glutaraldehyde (0.1%), 1-5 µM protein, products analysed by 13.5% SDS-PAGE
[5] = target: recombinant N-terminal domain (NTD) of the Φ11 lysogenic repressor CI (Staphylococcus aureus phage Φ11); assay: SEC; analytical gel filtration, 10 µM protein in buffer C (10 mM Tris-HCl pH 8.0, 200 mM NaCl, 1 mM EDTA, 5% glycerol) with 10 mM β-mercaptoethanol; calibrated with conalbumin, ovalbumin, carbonic anhydrase, cytochrome C
[6] = target: Φ11 CI with a C-terminal histidine tag (Staphylococcus aureus phage Φ11); assay: cross-linking; glutaraldehyde (0.1%), 1-5 µM protein, products analysed by 13.5% SDS-PAGE
[7] = target: Φ11 CI with a C-terminal histidine tag (Staphylococcus aureus phage Φ11); assay: SEC; analytical gel filtration, 10 µM protein in buffer C (10 mM Tris-HCl pH 8.0, 200 mM NaCl, 1 mM EDTA, 5% glycerol) with 10 mM β-mercaptoethanol; calibrated with conalbumin, ovalbumin, carbonic anhydrase, cytochrome C
[8] = target: T3, rNTD (N-terminal domain of phage phi11 CI repressor) (Staphylococcus aureus phage phi11, UniProt Q8SDX2 1-118); assay: EMSA; 0°C (on ice); EMSA with ~0.1 nM 32P-DNA, 20 min on ice (0°C) unless 42°C; RNAP assay and protein storage in buffer C (10 mM Tris-HCl pH 8.0, 200 mM NaCl, 1 mM EDTA, 5% glycerol); standard EMSA buffer not printed (per refs 7, 8); native PAGE 6% or 10%; settings: protein: recombinant, tags: C-terminal His6 (8 additional residues), chain copies: 2, label: 32P
T3 sequence: T2 sequence

[9] = target: T4, rCI (phage phi11 CI lysogenic repressor) (Staphylococcus aureus phage phi11, UniProt Q8SDX2 1-239); assay: as above; settings: protein: recombinant; tags: C-terminal His tag; chain copies: 2; label: 32P; 3' overhang 1 nt (both ends)
T4 sequence: T1 sequence

ATTCAACAAAAAAATACACGAAAAGCAAACTTTTATGTTGACTCAAGTACACGTATCGTGTATAGTAGGTTTTGTAAGCGGGAGGTGACAACATGCAATGGAATTTAATAAAGTTGAGAAAAGAAAGAAAGTGTACTCAAGAAGATTTAGGATCC (double strand) [O1O2]
binding [1]: binds | binding [2]: binds

CTCGAGCATTTTAACTACGTTTGCAGCTTGCTCGCCACGGTCGCCTTCAACGATGTCGAATTCAACTTTTTGGCCTTCTTCTAATGATTTGTATCCATCTTCAGCGATTGCTGAGAAGTGTACGAATACGTCGCTACCATCTTCTCTTTCGATGAAACCAAAACCTTTTTCTGCATTAAACCATTTAACTGTACCGTTATTCATCCATGGCATG (double strand) [cspC]
binding [2]: no binding

GGATCCTAAATCTTCTTGAGTACACTTTCTTTCTTTTCTCAACTTTATTAAATTCCATTGCATGTTGTCACCTCCCGCTTACAAAACCTACTATACACGATACGTGTACTTGAGTCAACATAAAAGTTTGCTTTTCGTGTATTTTTTTGTTGAATACCAAAAATAATTGGGTTATACTATAGGTAAATTTAAGGAGGTAAGAAAATGGATAAAAAAGAATTAGCGAAATTTATAGGCAATAAAATCAGATACTATAGAACCAAGAATTC (double strand) [O]
binding [2]: binds | binding [3]: binds

recombinant N-terminal domain (NTD) of the Φ11 lysogenic repressor CI (domain or fragment)
stoichiometry N [4]: 2 | stoichiometry N [5]: 2

Φ11 CI with a C-terminal histidine tag (natural protein)
stoichiometry N [6]: 2 | stoichiometry N [7]: 2

B1: O1 (dsDNA)
DNA 1: GACTCAAGTACACGTATCGTGTATAGTAGGTTTA
DNA 2: AAACCTACTATACACGATACGTGTACTTGAGTCA
Kd ([8]; 3' overhang 1 nt (both ends)): 3.13 ± 0.51 nM | Kd [9]: 3.17 ± 0.75 nM

B2: O2 (dsDNA)
DNA 1: ATTCAACAAAAAAATACACGAAAAGCAAACTTTTATGTTGACTCAAGTA
DNA 2: TACTTGAGTCAACATAAAAGTTTGCTTTTCGTGTATTTTTTTGTTGAAT
Kd ([8]; blunt): 7.83 ± 0.44 nM
